Measurements from patent publication US20250011440A1.

Tests used:
[1] = molecular target: human FcRn-His-GST (FcRn fused to a His-tag and glutathione S transferase) (human) (UniProt P55899); assay: AlphaScreen competition, pH 6.0 (FIG. 13)
[2] = molecular target: human FcRn-His-GST (FcRn fused to a His-tag and glutathione S transferase) (human) (UniProt P55899); assay: AlphaScreen competition vs wild-type Fc, pH 6.0 (FIG. 13)

UniProt P55899, sequence (P55899 24-297, chain 1 of 2): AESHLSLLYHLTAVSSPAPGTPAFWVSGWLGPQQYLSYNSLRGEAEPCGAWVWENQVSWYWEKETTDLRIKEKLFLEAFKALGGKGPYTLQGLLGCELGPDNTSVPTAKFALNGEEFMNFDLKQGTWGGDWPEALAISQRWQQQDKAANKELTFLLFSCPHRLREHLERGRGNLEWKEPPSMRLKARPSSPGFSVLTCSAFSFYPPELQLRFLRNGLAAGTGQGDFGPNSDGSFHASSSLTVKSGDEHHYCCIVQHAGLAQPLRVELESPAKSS
UniProt P55899, sequence (P61769 21-119, chain 2 of 2, further chain): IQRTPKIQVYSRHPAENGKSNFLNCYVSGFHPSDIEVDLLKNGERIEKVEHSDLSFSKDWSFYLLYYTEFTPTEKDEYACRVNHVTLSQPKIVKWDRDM

Row | Substance | percent of the binding affinity of the wild type [1] [%] | fold increase in FcRn affinity (vs wild type) [2] [fold]
1 | IgG1 Fc variant ^254N (Asn inserted after position 254; taken as in the anti-HER2 antibody trastuzumab) | 1.1 | 
2 | IgG1 Fc variant N286# (deletion of N286; taken as in the anti-HER2 antibody trastuzumab) |  | 2
